{"source": "patent US20020192785A1", "about": "(ONYX PHARMACEUTICALS, published 2002)", "binders": {"B1": {"name": "glu-glu tagged •N-p115 (amino acids 249-912 of human p115 Rho-GEF) (other, not shown: small tags and cut ends)", "chain": "VMGNRRSDDPPKTKKGLSSILDAARWNRGEPQVPDFRHLKAEVDAEKPGATDRKGGVGMPSRDRNIGAPGQDTPGVSLHPLSLDSPDREPGADAPLELGDSSPQGPMSLESLAPPESTDEGAETESPEPGDEGEPGRSGLELEPEEPPGWRELVPPDTLHSLPKSQVKRQEVISELLVTEAAHVRMLRVLHDLFFQPMAECLFFPLEELQNIFPSLDELIEVHSLFLDRLMKRRQESGYLIEEIGDVLLARFDGAEGSWFQKISSRFCSRQSFALEQLKAKQRKDPRFCAFVQEAESRPRCRRLQLKDMIPTEMQRLTKYPLLLQSIGQNTEEPTEREKVELAAECCREILHHVNQAVRDMEDLLRLKDYQRRLDLSHLRQSSDPMLSEFKNLDITKKKLVHEGPLTWRVTKDKAVEVHVLLLDDLLLLLQRQDERLLLKSHSRTLTPTPDGKTMLRPVLRLTSAMTREVATDHKAFYVLFTWDQEAQIYELVAQTVSERKNWCALITETAGSLKVPAPASRPKPRPRPSSTREPLLSSSENGNGGRETSPADARTERILSDLLPFCRPGPEGQLAATALRKVLSLKQLLFPAEEDNGAGPPRDGDGVPGGGPLSPARTQEIQENLLSLEETMKQLEELEEEFCRLRPLLSQLGGNSVPQPGCT", "notes": "Expressed in the baculovirus/Sf9 system and purified on anti-glu-glu Sepharose; also called N-terminal truncated version of p115"}}, "key": {"[1]": {"biological_target": "GST-Rac1 (UniProt P63000 1-192)", "test": "pull-down on GSH agarose (nucleotide depleted or GDP state), anti glu-glu immunoblot", "protocol": "(§1) Comparison of p115 stimulated GDP and GTPγ`S dissociation from RhoA. Increasing amounts of glu-glu tagged •N-p115 (0, 0.02, 0.075, 0.02, 0.4, 1.0 μM) were incubated with 0.3 μM RhoA with bound [³H]-GDP or GTP`[³⁵S] for 10 minutes, and the amount of nucleotide remaining bound to RhoA was determined as described in Hart et al. (39). Specificity of •N-p115 stimulated GDP dissociation. Increasing amounts of •N-p115 (0, 0.25, 0.5, 1.0, 2.0 μM) were incubated for 5 minutes with 2.0 μM GST-RhoA, GST-Rac1, GST-Cdc42Hs or EE-K-Ras prebound with [³H]-GDP and analysed as described in A. Western analysis of complex formation. One μg of glu-glu tagged •N-p115 was incubated with 4 μg of the nucleotide depleted or GDP states of baculovirus expressed GST-Rho, GST-Rac or GST-Cdc42Hs coupled to GSH agarose as described in Hart et al. (18). Proteins, which were recovered on the washed GSH beads, were analsed by SDS-PAGE and immunoblotting. The blot was probed with an affinity purified anti glu-glu monoclonal antibody. 100 ngs of glu-glu tagged •N-p115 was used as a positive control. Kinetic analysis of p115-catalyzed GEF activity on RhoA. […] The level of GTP incorporated onto Rho/min/pmol of •N-p115 was measured as GST-RhoA[`³²P]GTP bound to nitrocellulose filters."}, "[2]": {"biological_target": "T1, GST-Cdc42Hs (UniProt P60953 1-191)", "T1 construct": "Baculovirus expressed; not shown: glutathione S-transferase (GST) fusion partner", "T1 sequence (P60953 whole entry, the tested form may be a part)": "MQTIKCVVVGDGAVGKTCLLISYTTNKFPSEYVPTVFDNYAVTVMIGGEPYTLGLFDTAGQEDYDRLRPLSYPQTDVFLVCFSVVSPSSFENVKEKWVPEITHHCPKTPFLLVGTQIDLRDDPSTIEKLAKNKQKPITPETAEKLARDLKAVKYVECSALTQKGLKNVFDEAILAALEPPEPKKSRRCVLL", "test": "pull-down on GSH agarose (nucleotide depleted or GDP state), anti glu-glu immunoblot", "protocol": "as §1"}, "[3]": {"biological_target": "RhoA with bound [3H]-GDP or GTPγ[35S] (UniProt P61586 1-193, limits assumed)", "sequence (P61586 whole entry)": "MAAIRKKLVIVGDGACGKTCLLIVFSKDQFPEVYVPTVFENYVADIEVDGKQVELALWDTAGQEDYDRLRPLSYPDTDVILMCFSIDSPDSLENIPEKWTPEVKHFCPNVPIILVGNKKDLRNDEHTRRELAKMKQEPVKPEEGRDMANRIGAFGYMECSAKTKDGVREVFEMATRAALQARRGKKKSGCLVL", "test": "cell-based or functional assay"}, "[4]": {"biological_target": "T2, EE-K-Ras (UniProt P01116-2 1-188)", "T2 construct": "Named EE-K-Ras only for the GDP dissociation assay; the result on physical association says 'K-Ras' and its format is not described; not shown: EE (glu-glu) tag", "test": "complex formation assay; format for K-Ras not described"}}, "data": [{"binder": "B1", "values": [{"measurement": "binding result", "setting": "[1]", "value": "no binding"}, {"measurement": "binding result", "setting": "[2]", "value": "no binding"}, {"measurement": "stimulation of the intrinsic dissociation of GDP from RhoA", "setting": "[3]", "value": 10, "unit": "fold"}, {"measurement": "binding result", "setting": "[4]", "value": "no binding"}]}]}
